Key:
colicin E7 DNase (ColE7) [1] = molecular target: T1, colicin E7 DNase (ColE7) (E. coli, UniProt Q47112 444-576); assay: affinity measurements (Kleanthous laboratory; method not stated)
T1 sequence: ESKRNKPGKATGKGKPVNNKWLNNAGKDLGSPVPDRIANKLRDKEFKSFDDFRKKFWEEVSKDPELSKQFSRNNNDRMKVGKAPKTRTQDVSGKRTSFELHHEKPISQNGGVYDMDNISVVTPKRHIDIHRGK

colicin E9 DNase (ColE9) = molecular target: T2, colicin E9 DNase (ColE9) (E. coli, UniProt P09883 449-582); assay: not stated (running text of Example 4)
T2 sequence: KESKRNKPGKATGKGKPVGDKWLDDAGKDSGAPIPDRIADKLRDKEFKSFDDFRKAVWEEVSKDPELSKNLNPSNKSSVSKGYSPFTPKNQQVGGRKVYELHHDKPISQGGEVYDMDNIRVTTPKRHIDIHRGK

colicin E7 DNase (ColE7) [2] = molecular target: T1, colicin E7 DNase (ColE7); assay: not stated (running text of Example 4)
colicin E7 DNase (ColE7) [3] = molecular target: T1, colicin E7 DNase (ColE7); assay: cell-based or functional assay

B1: in vitro evolved Im9 variant #8 (Round 8, high stringency) (designed binder)
chain: MELKHRISDYTEAEFLQLVTTICDANASSEEELDKLITHFEEMTEHPSGSDLIYWPKEGDDDSPSGIVNTVKQWRAANGKSGFKQG
notes: also called Evolved Im variant#8; evolved variant 8
Kd (colicin E7 DNase (ColE7) [1]): 3.85 pM | koff (colicin E7 DNase (ColE7) [1]): 0.0032 s⁻¹ | kon (colicin E7 DNase (ColE7) [1]): 8.3e+08 M⁻¹ s⁻¹

B2: immunity protein 7 (Im7), wild type (other)
chain: MELKNSISDYTEAEFVQLLKEIEKENVAATDDVLDVLLEHFVKITEHPDGTDLIYYPSDNRDDSPEGIVKEIKEWRAANGKPGFKQG
notes: also called wild-type Im7
Kd (colicin E9 DNase (ColE9)): 56000 pM | Kd (colicin E7 DNase (ColE7) [2]): 0.00079 pM | Kd (colicin E7 DNase (ColE7) [1]): ≤ 0.01 pM | koff (colicin E7 DNase (ColE7) [1]): ≤ 1e-05 s⁻¹ | kon (colicin E7 DNase (ColE7) [1]): 7.6e+08 M⁻¹ s⁻¹ | ColE7 concentration at which full protection was observed, in vivo protection assay, 0.05 mM IPTG (colicin E7 DNase (ColE7) [3]): > 100 µM | ColE7 concentration at which full protection was observed, in vivo protection assay, 1 mM IPTG (colicin E7 DNase (ColE7) [3]): > 100 µM | ColE7 concentration at which full protection was observed, in vivo protection assay, w/o IPTG (colicin E7 DNase (ColE7) [3]): 100 µM

— patent US20080004436A1 (YEDA RESEARCH AND DEVELOPMENT CO LTD AT THE WEIZMANN …, published 2008)
